Results as given in patent publication US20230174643A1.

Tests used:
CD3 (human) = assay: cell-based or functional assay
Human DLL3 (human) = Human DLL3 (human) (UniProt Q9NYJ7); assay: cell-based or functional assay
Chain of Human DLL3 (human) (Q9NYJ7 27-618 limits assumed): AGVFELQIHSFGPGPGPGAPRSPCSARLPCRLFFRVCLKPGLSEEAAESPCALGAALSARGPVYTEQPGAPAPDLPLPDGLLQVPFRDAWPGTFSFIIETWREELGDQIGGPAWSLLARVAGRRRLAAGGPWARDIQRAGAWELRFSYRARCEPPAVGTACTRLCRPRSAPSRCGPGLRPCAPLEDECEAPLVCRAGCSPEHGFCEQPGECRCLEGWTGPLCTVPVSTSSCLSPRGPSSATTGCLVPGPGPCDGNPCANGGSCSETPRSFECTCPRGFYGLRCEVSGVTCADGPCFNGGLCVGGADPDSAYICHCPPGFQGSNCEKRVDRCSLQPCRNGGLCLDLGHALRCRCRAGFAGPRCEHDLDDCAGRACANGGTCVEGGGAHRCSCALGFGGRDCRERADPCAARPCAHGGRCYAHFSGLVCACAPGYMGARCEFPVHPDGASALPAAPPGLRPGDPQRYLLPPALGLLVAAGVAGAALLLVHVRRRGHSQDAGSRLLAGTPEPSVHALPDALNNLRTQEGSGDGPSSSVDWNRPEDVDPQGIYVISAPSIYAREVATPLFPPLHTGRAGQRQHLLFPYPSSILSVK

AMG 757 (bispecific antibody) showed an EC90 of AMG 757-mediated CD69 upregulation (CD3 (human)) of 4.6 ng/mL, an EC50 of AMG 757-mediated cell killing in SHP-77 cells (Human DLL3 (human)) of 2.8 ng/mL and an EC90 of AMG 757-mediated cell killing in SHP-77 cells (Human DLL3 (human)) of 5.7 ng/mL. The in vitro EC90 for AMG 757-mediated cell killing (Human DLL3 (human)) was 5.2 ng/mL.
